From US20030032785

Assays:
[1] = test system: T1, VEGF165 (vascular endothelial growth factor, 165 aa form) (Homo sapiens), P15692-4; assay: filter; conditions: 2'-NH2 at all C and U; 2'-OMe A5,A16,G13,G17,G20,G24-26,G28; PS 2'-deoxy T caps 1-4 and 29-33
T1 sequence: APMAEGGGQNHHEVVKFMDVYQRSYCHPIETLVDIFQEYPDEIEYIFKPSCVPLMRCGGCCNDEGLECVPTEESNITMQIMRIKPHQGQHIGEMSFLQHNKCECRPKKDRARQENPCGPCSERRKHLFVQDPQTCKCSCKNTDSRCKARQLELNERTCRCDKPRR

[2] = test system: T1, VEGF165 (vascular endothelial growth factor, 165 aa form) (Homo sapiens), P15692-4; assay: competition; conditions: 2'-NH2 at all C and U; 2'-OMe A5,A16,G13,G17,G20,G24-26,G28; PS 2'-deoxy T caps 1-4 and 29-33; 125I-VEGF receptor binding

“TTTACCCUGAUGGUAGACGCCGGGGUGTTTTT [NX-214]” gave a Kd [1] of 0.2 nM and a Ki [2] of 1 nM.
